The values below come from US20190010248A1 (Pieris, published 2019).

The assay has as its target T1, recombinant CD137-Fc fusion (#838-4B-100, R&D Systems) (human, UniProt Q07011 24-186).
T1 construct: also called Fc-fusion of human CD137; human CD137-Fc; not shown: Fc part of the bought fusion
Put plainly: ELISA, CD137-Fc coated, detection with anti-hNGAL antibody-HRP.

B1: lipocalin mutein of SEQ ID NO: 2 (designed binder)
chain: QDSTSDLIPAPPLSKVPLQQNFQDNQFHGKWYVVGQAGNIRLREDKDPIKMMATIYELKEDKSYDVTMVKFDDKKCMYDIWTFVPGSQPGEFTLGKIKSFPGHTSSLVRVVSTNYNQHAMVFFKFVFQNREEFYITLYGRTKELTSELKENFIRFSKSLGLPENHIVFPVPIDQCIDG
notes: also called positive control lipocalin mutein; CD137-specific lipocalin mutein in monomeric form
One may read the EC50 as the midpoint of the concentration-response curve. As to B1, the EC50 worked out at 0.49 nM.
